According to PMC6753139, “TRIM66 reads unmodified H3R2K4 and H3K56ac to respond to DNA damage in embryonic stem cells” (Nature Communications, 2019):
Entries after “also recorded” stand apart in the source; their conditions may differ.

What was measured:
[1] = target: T1, TRIM66-WT965-1160 (Homo sapiens, UniProt O15016); assay: ITC, PHD-Bromodomain wild type; type: binding; details: ITC, 25 °C, pH 7.5
T1 construct: ITC titration: titrating TRIM66-WT965-1160 with various histone H3 peptides; GST (N, cleaved yes); made in house; host or cells: Escherichia coli BL21 (DE3)
T1 sequence (O15016 1100-1295): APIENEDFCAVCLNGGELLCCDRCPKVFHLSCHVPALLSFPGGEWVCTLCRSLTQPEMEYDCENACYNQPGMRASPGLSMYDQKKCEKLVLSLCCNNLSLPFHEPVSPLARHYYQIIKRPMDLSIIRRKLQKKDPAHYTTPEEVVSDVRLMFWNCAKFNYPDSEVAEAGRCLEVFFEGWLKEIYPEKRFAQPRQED
Text: We next performed the glutathione S-transferase (GST) pulldown assays of the TRIM66-WT965-1160 against the calf thymus histones to verify the histone-binding ability of TRIM66 PHD-Bromodomain. […] The PHD of TRIM66 shared a low conservation with those of ING4, PHF2, and BPTF, and lacked the conserved aromatic residues, which were necessary for binding H3K4me2/3[40]–[42] (Supplementary Fig. 2b). Nevertheless, TRIM66 was highly conserved in sequence and structure with the PHDs of TRIM24 and TRIM33 (Fig. 1c and Supplementary Fig. 2b), which were reported to bind H3K4me0[5],[6]; thus, we speculated that the PHD of TRIM66 could bind H3K4me0. To verify this hypothesis, we performed isothermal titration calorimetry (ITC)-based binding assays. […] Based on previous researches reporting the acetyl-lysine binding partners of Bromodomain[3]–[12], we chose a series of related peptides derived from H3 and H4, to test their interactions with TRIM66-WT965-1160 by ITC experiments. […] We further found the acetylated state of K56 was necessary for this binding (Supplementary Fig. 3b).
We next titrated the TRIM66-WT965-1160 with a series of R2-methylated H3 peptides through ITC assays. […] This finding was consistent with the structural observation that each NηH atom of the R2 formed a hydrogen bond with residues in protein (Fig. 2d).
The DNA fragments of human TRIM66_968-1160, TRIM24_824-1006, and TRIM33_882-1087 were amplified from a human bone marrow cDNA library using a PCR-based cloning strategy. The fragments of TRIM66-WT968-1160 were inserted into a pGEX-4T-1 plasmid (GE Healthcare). The fragments of TRIM24_824-1006 and TRIM33_882-1087 were ligated into a pET-SUMO-28a (+) plasmid (Novagen). The DNA fragments of TRIM66-MUT968-1160 and TRIM66-WT965-1160 with codon optimization were synthesized by General Biosystems (sequence was shown in Supplementary Methods) and inserted into a pGEXT-4T-1 plasmid (GE Healthcare). Mutants of TRIM66 PHD-Bromo were generated through PCR using the Mutant Best kit (Takara). The mutation of point mutant based on the codon-optimized DNA sequence of TRIM66-WT965-1160. All constructs were expressed in Escherichia coli BL21 (DE3). The construct of ASF1a1-156 inserted into a pRSFDuet plasmid (courtesy of Ruiming Xu Lab, Institute of Biophysics, Chinese Academy of Sciences) was expressed in E. coli BL21 (DE3) RIL. The construct of full-length H4 inserted into a pET3a plasmid was expressed in E. coli BL21 (DE3). The expression of full-length histone H3K56ac was performed in BL21 (DE3) cells transformed with pBK-AxcKRS3 and pET22b encoding H3 with amber codons at the K56 site[12]. The DNA fragment of full-length TRIM66 was synthesized by General Biosystems and ligated into fugw vector (Addgene). See the information of protein sequence in Supplementary Table 1.
(§1) The calorimetric experiments were performed at 25 °C using a MicroCal PEAQ-ITC. The proteins were dialyzed using a buffer containing 20 mM Tris and 100 mM NaCl at pH 7.5. Lyophilized peptides were dissolved in the same buffer and adjusted to pH 7.5 prior to use. Peptide concentrations were estimated from the quantitative NMR experiments[73],[74]. ITC measurements were performed via injection of 0.7–4 mM peptide into a cell containing 0.12 mM TRIM24-PHD-Bromo, 0.05 mM TRIM33 PHD-Bromo, and 0.05 or 0.11–0.15 mM TRIM66-PHD-Bromo (or its mutants). The ITC data were subsequently analyzed using the MicroCal PEAQ-ITC analysis software.

[2] = target: T2, TRIM66-GSGS968-1160 (Homo sapiens, UniProt O15016, A1173S/DEL1165-1171/P1175S/R1172G/S1174G); assay: ITC, NMR mutant protein; type: binding; details: 25 °C, 20 mM Tris, 100 mM NaCl, pH 7.5, single measurement
T2 construct: We created a mutant protein (termed TRIM66-GSGS968-1160;); GST (N, cleaved yes); made in house; host or cells: Escherichia coli BL21 (DE3)
T2 sequence (O15016 with tags, fused parts or gaps DEL1165-1171/R1172G/A1173S/S1174G/P1175S): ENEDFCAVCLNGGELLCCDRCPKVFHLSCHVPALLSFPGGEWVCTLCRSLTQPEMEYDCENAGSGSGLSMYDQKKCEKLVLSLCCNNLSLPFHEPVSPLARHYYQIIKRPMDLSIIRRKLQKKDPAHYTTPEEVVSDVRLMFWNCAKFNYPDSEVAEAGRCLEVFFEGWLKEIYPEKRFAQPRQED
Experimental: To investigate the interaction between the H3K56ac peptide and the TRIM66 PHD-Bromodomain, we performed a nuclear magnetic resonance (NMR) titration experiment. We created a mutant protein (termed TRIM66-GSGS968-1160; Supplementary Fig. 1e, Supplementary Fig. 7a, b, Supplementary Table 1, and Supplementary Note 2).
as §1, with “software. […]” for “software.”
protein (TRIM66-WT965-1160) in all the ITC and GST pull down interaction assays. Meanwhile, the […]
experiments and crystal experiment, respectively. […]
combinational manner (Fig. 1d). To further figure out the binding mode between the TRIM66 PHD-Bromodomain and the united H3(1-15)-(48-57) K56ac peptide, we performed a NMR titration experiment and carefully analyzed the linewidth changes of TRIM66 -GSGS968-1160 (this protein is […]

[3] = target: T3, TRIM33_882-1087 (Homo sapiens, UniProt Q9UPN9); assay: ITC, PHD-Bromodomain; details: 25 °C, 20 mM Tris, 100 mM NaCl, pH 7.5, single measurement, error from curve fit, Weak binding = ITC curves cannot be fitted reliably
T3 construct: The fragments of TRIM24_824-1006 and TRIM33_882-1087 were ligated into a pET-SUMO-28a (+) plasmid; His-SUMO (N, cleaved yes); made in house; host or cells: Escherichia coli BL21 (DE3)
T3 sequence (Q9UPN9 882-1087): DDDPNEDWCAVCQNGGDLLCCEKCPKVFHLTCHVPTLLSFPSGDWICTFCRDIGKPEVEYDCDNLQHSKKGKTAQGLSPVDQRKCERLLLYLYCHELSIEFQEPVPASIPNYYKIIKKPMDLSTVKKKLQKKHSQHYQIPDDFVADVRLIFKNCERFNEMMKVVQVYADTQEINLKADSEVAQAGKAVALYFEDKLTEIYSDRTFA
Text: (§2) We subsequently compared the complex structure of TRIM24, TRIM33, and TRIM66 with H3 peptide. […] (Fig. 2d). […] However, they were sensitive to H3R2me2s (Table 2, Supplementary Fig. 5b, c, and Supplementary Table 2).
(§3) The DNA fragments of human TRIM66_968-1160, TRIM24_824-1006, and TRIM33_882-1087 were amplified from a human bone marrow cDNA library using a PCR-based cloning strategy. The fragments of TRIM66-WT968-1160 were inserted into a pGEX-4T-1 plasmid (GE Healthcare). The fragments of TRIM24_824-1006 and TRIM33_882-1087 were ligated into a pET-SUMO-28a (+) plasmid (Novagen). The DNA fragments of TRIM66-MUT968-1160 and TRIM66-WT965-1160 with codon optimization were synthesized by General Biosystems (sequence was shown in Supplementary Methods) and inserted into a pGEXT-4T-1 plasmid (GE Healthcare). Mutants of TRIM66 PHD-Bromo were generated through PCR using the Mutant Best kit (Takara). The mutation of point mutant based on the codon-optimized DNA sequence of TRIM66-WT965-1160. All constructs were expressed in Escherichia coli BL21 (DE3). […]
(§4) The calorimetric experiments were performed at 25 °C using a MicroCal PEAQ-ITC. […] Peptide concentrations were estimated from the quantitative NMR experiments[73],[74]. […] The ITC data were subsequently analyzed using the MicroCal PEAQ-ITC analysis software.

[4] = target: T4, TRIM24_824-1006 (Homo sapiens, UniProt O15164); assay: ITC, PHD-Bromodomain; details: 25 °C, 20 mM Tris, 100 mM NaCl, pH 7.5, single measurement, error from curve fit, Weak binding = ITC curves cannot be fitted reliably
T4 construct: The fragments of TRIM24_824-1006 and TRIM33_882-1087 were ligated into a pET-SUMO-28a (+) plasmid; His-SUMO (N, cleaved yes); made in house; host or cells: Escherichia coli BL21 (DE3)
T4 sequence (O15164 824-1006): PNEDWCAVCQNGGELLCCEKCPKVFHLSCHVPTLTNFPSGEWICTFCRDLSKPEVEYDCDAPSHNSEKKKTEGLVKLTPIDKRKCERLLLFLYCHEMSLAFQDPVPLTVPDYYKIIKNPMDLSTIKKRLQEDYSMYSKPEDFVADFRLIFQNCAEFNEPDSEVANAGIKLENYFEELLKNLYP
Text: as §2, §3, §4

[5] = MicroCal PEAQ-ITC, 20 mM Tris, 100 mM NaCl, single measurement, error from curve fit, Weak binding = ITC curves cannot be fitted reliably, N.D. = no detectable binding

Molecule | Kd [1, 5] [µM] | Kd [2] [µM] | KD [3] | KD [4] | binding (in words) [1] | KD [1, 5]
CC[C@H](C)[C@H](NC(=O)[C@H](CCC(=O)O)NC(=O)[C@H](CCCNC(=N)N)NC(=O)[C@@H](N)CC(C)C)C(=O)N[C@@H](CCCNC(=N)N)C(=O)N[C@@H](CCCNC(=N)N)C(=O)N[C@@H](Cc1ccc(O)cc1)C(=O)N[C@@H](CCC(N)=O)C(=O)N[C@@H](CCCCNC(C)=O)C(=O)N[C@@H](CO)C(=O)O [H3_48-57K56ac] | 109 | 127 ± 9.53 |  |  |  | 
H3R2me2s: symmetrically dimethylated H3R2 peptide |  |  | Weak binding | Weak binding | obvious reduction in their binding affinities | Weak binding; also recorded: ^aWeak binding
